From the supplement of paper PMC9170038

Tested on: MS2 coat protein
Experiment: apparent KD of MS2 coat protein; higher = weaker reporter binding
Conditions: Eterna round: R107
Method in brief: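 Illumina sequencing clusters served as templates for on-chip transcription of the designed RNA switches. SNAP-549-labelled MS2 coat protein was then titrated in twofold steps from 0.7 or 1.5 nM to 3 µM, allowing 0.8–1.5 h per step at first and 10–20 min per step later. The buffer held 100 mM Tris-HCl pH 7.5, 80 mM KCl and 4 mM MgCl2, without or with constant ligand. Apparent KD is the median per design of normalised cluster binding-curve fits.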

[1] = input ligand: theophylline 20 uM
[2] = input ligand: tryptophan 2.4 mM
[3] = input ligand: theophylline 2 mM

Row | Sequence | apparent KD of MS2 coat protein (input ligand: arginine 13.2 mM) | apparent KD of MS2 coat protein [1] | apparent KD of MS2 coat protein [2] | apparent KD of MS2 coat protein (input ligand: none) | apparent KD of MS2 coat protein [3]
1 | AUUCCAUUGGUGCAGUUGUUAAAUGGCGAUACCAGCGUGGAAACACGCCCUUGGCAGCGCCAAAACAUGAGGAUCACCCAUGUUA [Havirov] | 32.1 nM | 70.5 nM | 59.1 nM |  | 
2 | AUUCUUUACUGAAGGAGCGUCAUUCUUACAUGAGGAUCACCCAUGUUUAUUCUUUAUGAUUGACAGGUAGGUCGCAGAUUUUUUA [#11 Same State - Arginine B] | 19.5 nM | 24.4 nM | 17 nM | 17.8 nM | 19 nM
3 | CAAUACGUAACUGAUACCAGUGUACUGACAUGAGGAUCACCCAUGUUGGGUUUUGUUGUACACCCUUGGCAGCAGAAUCGUAUUG [AstrosExyTheB#11] | 46.7 nM | 79.4 nM | 66.3 nM |  | 
4 | CACAUGAGGAUCACCCAUGUCUGAACUGAAGGAGCGCUAAAUAAGGCAGGUAGGUCGCGGAAUCGUGUGUGCAUAUGCACACGCG [9.U] | 17.8 nM | 35.7 nM | 18 nM | 24 nM | 25.3 nM
5 | CAUGUGAAAAUAAGAAGAAGAAGAAUAAAUCGAGGACCGGUACGGCCGCCACUCGUCGAAUCACAUGAGGAUCACCCAUGUAGCC [Tryptofun] | 26.3 nM | 52.6 nM |  |  | 69 nM
6 | CCAUAGCUAGGAAGGAGCGCAUACUUCACAUGAGGAUCACCCAUGUCGAGACGUGAGUCAGUGCAGGUAGGUCGCCUAGCUAUGG [Same State - Arginine B (Freestyle 29)] | 18.1 nM | 24.2 nM | 20.6 nM | 18.6 nM | 25.5 nM
7 | CCCAAUUUCCGAGAUAUGGGUCCAACUAAACGAGGACCGGUACGGCCGCCACUCGACUACAAACAUGAGGAUCACCCAUGUAAAG [theeternabot_exclusion_MS2_Trp_A_40] | 17.6 nM | 20 nM |  |  | 19.8 nM
8 | CCCUCCAGAACGGCCGCCACUAAAGGGUUGUGUGCGACUCCGGAACAUGAGGAUCACCCAUGUCUUAGGACCGGGUUCCCUUCUA [theeternabot_sameState_MS2_Trp_B_30] | 58.9 nM | 81.9 nM |  |  | 82.2 nM
9 | CCGGCCAAUUAGAAAUUAAUUGGCCGGAAACGAGGACCGGUACGGCCGCCACUCGUGGCGGGAGAAACAUGAGGAUCACCCAUGU | 23 nM | 54.7 nM |  |  | 53 nM
10 | CCGGCCGCAUGAAGGAGCGCACAGCGCUCGCACAUGAGGAUCACCCAUGUAAAUGGGUGCGUGCAGGUAGGUCGCAUGCAGGCAA [Lesobete] | 133 nM | 544 nM | 472 nM | 313 nM | 671 nM
11 | CCGUUCUCUGCGGCCGCCACUCAAGGAGCUACAUAGCUCCUAGACAUGAGGAUCACCCAUGUCGCGAGGACCGGGUAGAUUCUCC [Same State Typptophan B GF9] | 34.4 nM | 63.6 nM |  |  | 64.2 nM
12 | CCUAUGCAGUCGGCCGCCACUGAUAAAAUUAUUUUUACCUCAGAAACAUGAGGAUCACCCAUGUACAGGACCGGGACUGUAUAGG [Ex Tryptophan B 17] | 24.2 nM | 20.1 nM |  |  | 22.8 nM
13 | CCUAUGCAGUCGGCCGCCACUGUACAUGAGGAUCACCCAUGUUCUAAUAUAAUAAGAACUGAAAUCAGGACCGGGACUGUAUAGG [Ex Tryptophan B 2] | 1660 nM | 27.8 nM | 19.3 nM | 20.1 nM | 19.7 nM
14 | CCUCAUGUGGUGCUGCACAUGAGAGGUGAUACCAGCAUCGAAAGAUGCCCUUGGCAGCACCAACAUGAGGAUCACCCAUGUAAUA [(M)'-(T)'-(M)''-(T1)-(T2)-(M1)-(M2)_Design1] | 27 nM | 94 nM | 25 nM |  | 
15 | CCUGCGUUUCUUUUCUUUCGCAGGAAUGAUACCAGUAGGGAAACCUACCCUUGGCAGCAUGGGACAUGAGGAUCACCCAUGUAAU [SSThA NP+V+V2 #2] | 255 nM | 346 nM | 408 nM |  | 
16 | CCUUUUAUUAAUGAUACCAGCGUAUUAAGCAUCACCUUGGACAUGAGGAUCACCCAUGUACGCCCUUGGCAGCAUACCACUGGGU [theeternabot_exclusion_MS2_Theo_B_5] | 35.7 nM | 52.2 nM | 34.7 nM |  | 
17 | CGACACCAGGCAAUCCAUCACCCGGCUGAUACCAGCUCUUUUGGAAGCCCUUGGCAGCAGAGAACAUGAGGAUCACCCAUGUCAG [theeternabot_exclusion_MS2_Theo_A_18] | 14.5 nM | 16.7 nM | 17 nM |  | 
18 | CGACGAUACCUGGAUACCAGCGACAUGAGGAUCACCCAUGUAUGUGGAUCAGCCAUGAUAUGCCCUUGGCAGCCACCAAAGUCGG [IIIMULLIN] | 17 nM | 24.1 nM | 14.3 nM |  | 
19 | CGAGUAAGUUCAAUCGAAUAACGGUUUUCGCGAGGACCGGUACGGCCGCCACUCGUGUGAUAUCACACAUGAGGAUCACCCAUGU [3'end-1] | 42.7 nM | 77.1 nM |  |  | 135 nM
20 | CGAUAGGGUCAAUACCUAAUCAUAUCUGAAGGAGCGUGGAUAUACACAGGUAGGUCGCAGAAUCACAUGAGGAUCACCCAUGUCC [Same State Arginine A GF13] | 60.2 nM | 127 nM | 96.5 nM | 102 nM | 154 nM
21 | CGCAACCCUAAGGGAUUGUGGUUAUUAGAUACCAGUAUGAUGCAAUACCCUUGGCAGCUAAUACAUGAGGAUCACCCAUGUUGCG [Th A Ex t2] | 13.6 nM | 20.2 nM | 16.8 nM |  | 
22 | CGCCACAUGAGGAUCACCCAUGUAAUGGCGCGAGGACCGGUACGGCCGCCACUCGCCUGGCAGUGAGCGCAUGCGGCCUGGGUAU [Exclusion Tryp A GF9] | 12.2 nM | 13.3 nM | 13.3 nM | 10.6 nM | 14.4 nM
23 | CGGACAUGAGGAUCACCCAUGUACACUGAAGGAGCGUCGAGAACGACAGGUAGGUCGCAGGUUGAGGAUGGUGAUGCUCAGGUAG [Exclusion Arginine A GF 3] | 37.1 nM | 64.7 nM | 14.3 nM | 39.2 nM | 15.8 nM
24 | CGGACAUGAGGAUCACCCAUGUCGUCGACGCGAGGACCGGUACGGCCGCCACUCGCAUGCCAAUGAGCGCAUGCGGCCUGGGUAU [Exclusion Tryp A GF5] | 15.8 nM | 29 nM |  | 19.5 nM | 21 nM
25 | CGGUUUGUGAUGGAUACCAGCAGAGAAAACGUUUAUCCUAACAUGAGGAUCACCCAUGUAUGCCCUUGGCAGCUGUUGUGGGCUG [8.U] | 34.5 nM | 60.3 nM | 43.5 nM |  | 
26 | CGGUUUGUGAUGGAUACCAGCAGAGAAAAUGUUUAUCCUGACAUGAGGAUCACCCAUGUGUGCCCUUGGCAGCUGUUGUGGGCUG [8.X] | 57.3 nM | 85.7 nM | 51.1 nM |  | 
27 | CGUAAACAUGAGGAUCACCCAUGUGAUGAUACCAGCACGAUUAACUGCCCUUGGCAGCAUGUAUUGUACGACUUAUUGCCCAUCG [theeternabot_sameState_MS2_Theo_A_15] | 15.4 nM | 23.3 nM | 13.5 nM |  | 
28 | CGUGUGCGUUCUGAUACCAGAGACAUGAGGAUCACCCAUGUCCGAUCGUCCUGCCUCAGACUCCCUUGGCAGCAGGUUUUGUGCU [Exclusion Theophylline B GF4] | 29.5 nM | 56.7 nM | 50.2 nM |  | 
29 | CUAUUGAUAGCGGCCGCCACUUACUCAUGAGGUAACAACAUGAGGAUCACCCAUGUUUGAGGAUCAAGGACCGGGCUAUUGAUAG [AstrosSSTryB#13] | 30 nM | 33.9 nM | 23.8 nM | 27.6 nM | 30.9 nM
